# Assay results as given in article PMC11413788, “The heterobivalent (SSTR2/albumin) radioligand [^67Cu]Cu-NODAGA-cLAB4-TATE enables efficient somatostatin receptor radionuclide theranostics” (Theranostics, 2024).
# Where two headings read alike, the source gives them in different places.
# Key:
# [1] = Tissue pharmacokinetics by quantitative SPECT imaging in MPC allograft mice; conditions: mouse, in vivo; for tissue uptake per volume at 1 h / tissue uptake per volume at 5 h / tissue uptake per volume at 72 h / tissue uptake per volume at 168 h / Heart (blood) concentration half-life eff. / Liver concentration half-life eff. / Total body contents half-life eff.: female; for tissue uptake per volume at 1 h / tissue uptake per volume at 5 h / tissue uptake per volume at 72 h / tissue uptake per volume at 168 h: Rj:NMRI-Foxn1^nu/nu nude, iv, 50 MBq, total radioactivity; for Heart (blood) concentration half-life eff. / Liver concentration half-life eff. / Total body contents half-life eff.: nude (Rj:NMRI-Foxn1^nu/nu)
# Procedure: All animal experiments were carried out according to the guidelines of the German Regulations for Animal Welfare and have been approved by the local Ethical Committee for Animal Experiments. MPC cells (4 × 10^6) were injected subcutaneously into the shoulder of 10-14‑week‑old female nude mice (Rj:NMRI-Foxn1^nu/nu, Janvier Labs, Le Genest-Saint-Isle, France). Prior to treatment and imaging procedures, anesthesia was induced and maintained with inhalation of 10 % (v/v) desflurane in 30/10 % (v/v) oxygen/air. During anesthesia, animals were continuously warmed at 37 °C. Body weight was monitored three times per week and tumor diameters were measured using a caliper. Tumor volume was calculated assuming a tri‑axial ellipsoid with the diameters a, b, and c using the formula V = π/6 × a × b × c. For urine collection, animals were separated in clear conventional rodent boxes. After spontaneous micturition, voided urine was aspirated with a pipette tip, diluted 1:2 with ultrapure water and stored at -80 °C until further processing. For blood sampling, animals were placed in a restrainer and 50 µL of blood were collected from a lateral tail vein using a syringe needle rinsed with heparin. Blood samples were mixed with 4 µL of a 10 % (w/v) aqueous potassium-EDTA solution and kept at 4 °C until further processing. Animals were sacrificed using CO2 inhalation and cervical dislocation.
# Tumor-bearing mice were treated with the SSTR2 radioligands at a single initial activity dose of 50 MBq delivered in 0.2 mL of 0.154 mol/L NaCl(aq) through injection into a tail vein (see Supporting information, Table S 1 for further details). Small-animal single-photon emission computed tomography (SPECT) was performed using the Mediso NanoScan® SPECT/CT (Mediso Medical Imaging Systems, Budapest, Hungary). […] With each SPECT scan, a corresponding CT image was recorded and used for anatomical referencing and attenuation correction. Details on image acquisition and reconstruction parameters are included in the Supporting information.
# Regions of interest (ROIs) were generated using tissue-specific signal intensity thresholds. ROI-averaged activity concentrations in tissues [MBq/mL] were determined. Details on SPECT image resolution, image quantification tests, and tissue delineation are included in the Supporting information.
# (§1) Unless specified otherwise, all activity values are reported without decay correction. Time courses of normalized activity concentrations [% initial A/mL] (organs, tumors) or normalized activity amounts [% initial A] (total body, urinary bladder) were analyzed by non-linear regression using the 'One-phase decay', 'Plateau followed by one-phase decay', or 'Two-phase decay' models implemented in Prism 10 (GraphPad Software), with extrapolated y‑values approaching a lower limit constrained to 0. The normalized time-cumulated activity per milliliter of tissue [% initial A/mL × d] was calculated from areas under time-activity curves. For dose estimation in tumors and kidneys, these values were further converted into total time-cumulated organ activity per initial activity dose [MBq × h/MBq] using a realistic dosimetry model for 30‑g‑mice implemented in Olinda 2.2.3 (Hermes Medical Solutions AB, Stockholm, Sweden). The physical density of tissues was assumed to be 1 g/cm^3. The radionuclide-specific mean absorbed tissue dose DT [Gy] in tumors and kidneys was calculated using the sphere model in Olinda 2.2.3 (Hermes Medical Solutions AB).
# Method: Extraction of tissue -specific activity concentrations from SPECT/CT images Tissue-specific regions of interest (ROIs) were generated in ROVER 3.0.77h (ABX). Sphere masks were positioned to pre -select tissue -specific regions for delineation. ROIs were generated within the masks using tissue -specific threshold -based delineation (% of maximum voxel intensity within the given mask)
# [2] = Absorbed dose calculation in tumors and kidneys of MPC allograft mice; conditions: mouse, in vivo
# Procedure: as §1
# [3] = human
# Procedure: Tissue-specific pharmacokinetic profiles of radioligands in mice were transformed into human time scale and organ masses using allometric scaling, and dose calculations were performed as reported elsewhere, with some modifications. In brief, projected cumulated activity in human organs was calculated by curve fitting as described above for investigations in mice. Calculations were performed separately for female and male subjects. Cumulated activity in the urinary bladder was determined assuming a voiding interval of four hours. Projected human doses were calculated for male and female subjects using the ICRP 89 Adult Female (60 kg) and ICRP 89 Adult Male (73 kg) models implemented in Olinda 2.2.3 (Hermes Medical Solutions AB).
# [4] = tested on: HEK293-SSTR2+ tumor xenografts; conditions: within seven days, cited from earlier work
# NCI‑H69 xenografts = conditions: mouse, in vivo; cited from earlier work
# GOT‑1 xenografts = conditions: mouse, in vivo; cited from earlier work
# [5] = cited from earlier work
# [6] = mouse, in vivo; cited from earlier work
# MPC cells [7] = experiment: Uptake of radioligands in intact MPC cells (acid wash); format: cell-based, mouse; conditions: 25 nmol/L; for Uptake fraction: non-acid-releasable fraction normalized to specifically bound radioligand
# Procedure: Uptake of SSTR2 radioligands was measured and analyzed as previously described, with some modifications. In brief, radioligands were prepared at a molar activity of 25 MBq/nmol. […] Non-specific binding and uptake were measured in presence of 1 µmol/L acetyl-TATE. The uptake fraction of radioligands was measured after acid wash with Dulbecco's phosphate-buffered saline containing 0.9 mmol/L CaCl2, 0.5 mmol/L MgCl2, and 0.05 mol/L glycine, pH 2.8, for 5 min.
# MPC cells [8] = format: cell-based, mouse; conditions: relative loss normalized to initial SSTR2-specific binding
# Procedure: MPC cells (2.25 × 10^5/well) were seeded into collagen coated CELLSTAR 48‑well microplates (Greiner Bio‑One, 67180) and grown for three days. Cell culture medium and washing buffer were pre-warmed at 37 °C, unless specified otherwise. Radioligands were prepared at a molar activity of 40 MBq/nmol. Cells were incubated with the radioligands at a final concentration of 2.5 nmol/L in 0.5 mL of cell culture medium for 1 hour at 37 °C. Non-specific binding was determined in presence of 1 µmol/L acetyl-TATE. Binding to plastic surfaces was determined in cell-free cavities. At the end of radioligand exposure, incubation medium was removed, and cells were washed three times with Dulbecco's phosphate-buffered saline containing 0.9 mmol/L CaCl2 and 0.5 mmol/L MgCl2. Cells were overlayed with 0.5 mL of radioligand-free medium and further incubated at 37 °C for a total duration of 24 hours. At specific sampling points (1, 2, 5, and 24 hours), supernatants were removed from all cavities. […] Activity of cell homogenates was measured using the gamma counter Wizard^2 2480 (PerkinElmer, Waltham, MA, USA). Release kinetics were analyzed by non-linear regression using the 'two phase decay' model implemented in Prism 10 (GraphPad Software) with the 'Top' and 'Bottom' parameters constrained at 100 %, and 0 %, respectively.
# [9] = cited from earlier work; remark: listed apart in the source
smiles,measurement,setting,value
"C[C@@H](O)[C@H](NC(=O)[C@@H]1CSSC[C@H](NC(=O)[C@@H](Cc2ccccc2)NC(=O)CCC(C(=O)O)N2CCN(CC(=O)O)CCN(CC(=O)O)CC2)C(=O)N[C@@H](Cc2ccc(O)cc2)C(=O)N[C@H](Cc2c[nH]c3ccccc23)C(=O)N[C@@H](CCCCN)C(=O)N[C@@H]([C@@H](C)O)C(=O)N1)C(=O)O (stereo partly drawn) [[^67Cu]Cu‑NODAGA-TATE, metal not drawn]",tissue uptake per volume at 1 h,[1]; Heart,0.35 ± 0.13 %ID/mL
same,tissue uptake per volume at 1 h,[1]; Kidneys,6.69 ± 0.46 %ID/mL
same,tissue uptake per volume at 5 h,[1]; Kidneys,3.87 ± 0.26 %ID/mL
same,tissue uptake per volume at 1 h,[1]; Liver,0.63 ± 0.01 %ID/mL
same,tissue uptake per volume at 5 h,[1]; Liver,0.57 ± 0.01 %ID/mL
same,tissue uptake per volume at 72 h,[1]; Liver,0.15 ± 0.04 %ID/mL
same,tissue uptake per volume at 168 h,[1]; Liver,0.03 ± 0.02 %ID/mL
same,tissue uptake per volume at 1 h,[1]; Tumor,17.7 ± 1.83 %ID/mL
same,tissue uptake per volume at 5 h,[1]; Tumor,13.5 ± 1.4 %ID/mL
same,tissue uptake per volume at 72 h,[1]; Tumor,0.14 ± 0.01 %ID/mL
same,Heart (blood) concentration half-life eff.,[1],7.8 min
same,Liver concentration half-life eff.,[1],1210 ± 241 min
same,Total body contents half-life eff.,[1],19.2 min
same,"DT, Kidneys (mean absorbed dose in kidneys)",[2],2.42 ± 0.20 Gy
same,estimated absorbed dose in kidneys,[2],2.42-2.81 Gy/50 MBq
same,extrapolated female blood effective half-life,[3],52.8 min
"C[C@@H](O)[C@H](NC(=O)[C@@H]1CSSC[C@H](NC(=O)[C@@H](Cc2ccccc2)NC(=O)CN2CCN(CC(=O)O)CCN(CC(=O)O)CCN(CC(=O)O)CC2)C(=O)N[C@@H](Cc2ccc(O)cc2)C(=O)N[C@H](Cc2c[nH]c3ccccc23)C(=O)N[C@@H](CCCCN)C(=O)N[C@@H]([C@@H](C)O)C(=O)N1)C(=O)O [[^177Lu]Lu‑DOTA-TATE, metal not drawn]",tissue uptake per volume at 1 h,[1]; Heart,0.21 ± 0.18 %ID/mL
same,tissue uptake per volume at 1 h,[1]; Kidneys,4.05 ± 0.01 %ID/mL
same,tissue uptake per volume at 5 h,[1]; Kidneys,3.23 ± 0.04 %ID/mL
same,tissue uptake per volume at 72 h,[1]; Kidneys,0.08 ± 0.01 %ID/mL
same,tissue uptake per volume at 1 h,[1]; Liver,0.24 ± 0.04 %ID/mL
same,tissue uptake per volume at 72 h,[1]; Tumor,6.79 ± 0.55 %ID/mL
same,tissue uptake per volume at 168 h,[1]; Tumor,1.33 ± 0.11 %ID/mL
same,tissue uptake per volume at 1 h,"[1]; 1 h, decay-corrected, Am 40 MBq/nmol, read-out: Tumor",22.7 ± 1.84 %ID/mL
same,Heart (blood) concentration half-life eff.,[1],7.8 min
same,Liver concentration half-life eff.,[1],68.4 ± 1.2 min
same,Total body contents half-life eff.,[1],15 min
same,release from MPC tumors,[1],94%
same,"DT, Kidneys (mean absorbed dose in kidneys)",[2],2.81 ± 0.14 Gy
same,absorbed doses in MPC tumors,[2],22.0-41.1 Gy
same,estimated absorbed dose in kidneys,[2],2.42-2.81 Gy/50 MBq
same,highest absorbed dose in MPC tumors per administered activity,[2],0.80-0.82 Gy/MBq
same,extrapolated female blood effective half-life,[3],49.8 min
same,release from tumor xenografts,[4],95%
same,absorbed tumor dose per administered activity,NCI‑H69 xenografts,0.33-0.36 Gy/MBq
same,release from tumor xenografts,NCI‑H69 xenografts,68−85%
same,total absorbed dose in tumors,NCI‑H69 xenografts,10.0-10.2 Gy
same,absorbed tumor dose per administered activity,GOT‑1 xenografts,0.27 Gy
same,release from tumor xenografts,GOT‑1 xenografts,47%
same,total absorbed dose in tumors,GOT‑1 xenografts,8.1 Gy
same,total absorbed kidney doses well tolerated without acute nephrotoxicity,[5]; clinical experience,up to 23 Gy
same,human effective dose in clinical dosimetry,"[5]; human, in vivo",0.069 mSv/MBq
same,"threshold dose for proximal tubular damage, absorbed in renal cortex",[6],24 Gy
"C[C@@H](O)[C@H](NC(=O)[C@@H]1CSSC[C@H](NC(=O)[C@@H](Cc2ccccc2)NC(=O)CN2CCN(CC(=O)O)CCN(CC(=O)O)CCN(CC(=O)O)CC2)C(=O)N[C@@H](Cc2ccc(O)cc2)C(=O)N[C@H](Cc2c[nH]c3ccccc23)C(=O)N[C@@H](CCCCN)C(=O)N[C@@H]([C@@H](C)O)C(=O)N1)C(=O)O [[^64Cu]Cu‑DOTA-TATE, metal not drawn]",Uptake fraction,MPC cells [7]; listed as DOTA ^64Cu,61 ± 4.6%
same,release from tumor xenografts,"[4]; reported, reference not given",86%
"C[C@@H](O)[C@H](NC(=O)[C@@H]1CSSC[C@H](NC(=O)[C@@H](Cc2ccccc2)NC(=O)CN2CCN(CC(=O)O)CCN(CC(=O)O)CCN(CC(=O)O)CC2)C(=O)N[C@@H](Cc2ccc(O)cc2)C(=O)N[C@H](Cc2c[nH]c3ccccc23)C(=O)N[C@@H](CCCCN)C(=O)N[C@@H]([C@@H](C)O)C(=O)N1)C(=O)O [[^68Ga]Ga‑DOTA-TATE, metal not drawn]",Uptake fraction,MPC cells [7]; listed as DOTA ^68Ga,87 ± 1.9%
"C[C@@H](O)[C@H](NC(=O)[C@@H]1CSSC[C@H](NC(=O)[C@@H](Cc2ccccc2)NC(=O)CCC(C(=O)O)N2CCN(CC(=O)O)CCN(CC(=O)O)CC2)C(=O)N[C@@H](Cc2ccc(O)cc2)C(=O)N[C@H](Cc2c[nH]c3ccccc23)C(=O)N[C@@H](CCCCN)C(=O)N[C@@H]([C@@H](C)O)C(=O)N1)C(=O)O (stereo partly drawn) [[^64Cu]Cu‑NODAGA-TATE, metal not drawn]",effective uptake lower compared to [177Lu]Lu-DOTA-TATE,MPC cells [7]; MPC cells,77%
same,Uptake fraction,MPC cells [7],64 ± 4.1%
same,24 h release,MPC cells [8],73 ± 1.9^ # %
same,Fast fraction,MPC cells [8]; 1 hour exposure,42 ± 3.3%
same,plasma half-life,[9],> 1440 min
